Where “and” joins values, the source holds several entries; their conditions need not be identical. Equal values may be shown once.
T1: rat VEGFR1 (soluble antigen of the KinExA and SPR affinity assays) (rat, UniProt P53767 23-758, limits assumed)
T1 sequence (looked up): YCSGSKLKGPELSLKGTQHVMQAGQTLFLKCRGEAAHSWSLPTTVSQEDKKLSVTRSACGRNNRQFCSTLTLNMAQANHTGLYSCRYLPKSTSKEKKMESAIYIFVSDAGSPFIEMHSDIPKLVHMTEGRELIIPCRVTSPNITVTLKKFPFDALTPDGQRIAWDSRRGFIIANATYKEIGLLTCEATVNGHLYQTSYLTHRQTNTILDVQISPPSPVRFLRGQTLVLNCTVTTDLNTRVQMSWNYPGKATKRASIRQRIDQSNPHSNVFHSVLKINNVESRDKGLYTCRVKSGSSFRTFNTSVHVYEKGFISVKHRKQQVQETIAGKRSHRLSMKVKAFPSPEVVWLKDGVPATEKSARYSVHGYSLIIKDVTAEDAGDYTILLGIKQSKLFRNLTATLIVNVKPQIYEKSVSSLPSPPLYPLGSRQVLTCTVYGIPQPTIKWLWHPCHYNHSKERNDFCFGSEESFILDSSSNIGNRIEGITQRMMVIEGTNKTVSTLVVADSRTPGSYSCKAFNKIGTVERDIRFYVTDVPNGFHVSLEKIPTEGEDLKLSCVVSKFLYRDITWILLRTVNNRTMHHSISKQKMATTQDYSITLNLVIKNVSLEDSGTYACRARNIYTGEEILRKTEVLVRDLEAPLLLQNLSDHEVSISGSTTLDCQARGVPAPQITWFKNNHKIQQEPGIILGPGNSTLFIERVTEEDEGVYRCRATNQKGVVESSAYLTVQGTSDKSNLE

B1: VGFB82 (antibody, human IgG1, lambda, L234A L235A, V domains shown)
VH: EVQLLESGGGLVQPGGSLRLSCEASGFDFSTYAMNWVRQAPGKGLEWVATINSEGTITSHAPAVKGRFTISRDNSKNTAYVQMNSLRAEDSAVYYCSSTTGTTHGMDVWGRGTTVTVSS
VL: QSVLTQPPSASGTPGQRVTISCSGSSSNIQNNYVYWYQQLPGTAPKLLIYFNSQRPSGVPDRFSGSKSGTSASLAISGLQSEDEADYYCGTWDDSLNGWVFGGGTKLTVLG
notes: human IgG1 (L234A/L235A/D265S)
B2: VGFB54 (antibody, human IgG1, lambda, L234A L235A, V domains shown)
VH: EVQLLESGGGSVQPGGSLRLSCTASGFNFEDYGMNWVRQAPGKGLDWVSSINRNGDISTYHVDSVKGRFTISRDNSKNTLYLQMNSLRAEDTAIYYCTKNHDYHGMDVWGQGTTVTVSS
VL: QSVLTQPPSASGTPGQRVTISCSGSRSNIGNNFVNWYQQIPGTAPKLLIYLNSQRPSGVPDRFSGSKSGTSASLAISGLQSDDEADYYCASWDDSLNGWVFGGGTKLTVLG
notes: human IgG1 (L234A/L235A/D265S), lambda, 2H:2L; from OmniChicken

What was measured:
[1] = biological target: T2, human VEGFR1 (soluble antigen of the KinExA and SPR affinity assays) (human, UniProt P17948 27-758, limits assumed); assay: KinExA, solution
Protocol: (§1) Kinetic exclusion assay (KEA; KinExA) was used to analyze the binding of anti-VEGFR1 antibodies to human, mouse and cynomolgus monkeys VEGFR1. KEA is a fluorescence-based solution method, and it is described in detail in the literature (Darling and Brault, 2004). To measure the affinity of an interaction, a series of solutions with a fixed concentration of one interactant (A) and varying concentrations of another interactant (B) are prepared and allowed to reach equilibrium. After equilibration, the concentration of free A is determined by flowing the equilibrated mixture through a column packed with beads modified with reactant B. Free A binds to the beads and is then detected using a fluorescently labeled polyclonal antibody.
(§2) Briefly, fixed concentrations (300 pM, 60 pM, 12 pM, 2.4 or 0.5 pM) of Ab were used to prepare a serial dilution of the antigen (2 nM to 0.52 pM, or 800 pM to 5.37 fM). The complex titrations were incubated at RT to reach binding equilibrium for at least 2 days. After incubation, the samples were run on the KinExA3200 or KinExA4000 instrument to assess free antibody in the reaction. During these studies some of the data were rejected because the experiments failed or failed the acceptance criteria. For mouse VEGFR1 the 60 and 300 pM concentrations were rejected due to high titrant related NSB. The dissociation equilibrium constant, (KD), was determined using the n-curve analysis feature of the KinExA Pro software. This program uses nonlinear least-square regression analysis of the globally fitted data to a 1:1 binding model. (CI=confidence interval).

[2] = biological target: T1, rat VEGFR1 (soluble antigen of the …); assay: KinExA, solution
Protocol: as §1, §2

[3] = biological target: T2, human VEGFR1 (soluble antigen of the …); assay: SPR
[4] = biological target: T1, rat VEGFR1 (soluble antigen of the …); assay: SPR
[5] = biological target: T3, Recombinant human VEGFR1-Fc (R&D Systems) (human, UniProt P17948 27-687, limits assumed); assay: biochemical ligand blocking assay; ligand and receptor form not given
T3 construct: bought; not shown: Fc part of the bought fusion, not described
Outline: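 Antibodies in half-log dilutions were pre-incubated for 30 minutes with recombinant VEGFR1-Fc bound to Protein A/G-coated MSD plates, after which biotinylated ligand was added. Sulfo-tagged streptavidin and an MSD imager were used for detection in this electro-chemiluminescence ligand blocking assay, and IC50 was calculated from the readings.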

T2 sequence (P17948 27-758 limits assumed): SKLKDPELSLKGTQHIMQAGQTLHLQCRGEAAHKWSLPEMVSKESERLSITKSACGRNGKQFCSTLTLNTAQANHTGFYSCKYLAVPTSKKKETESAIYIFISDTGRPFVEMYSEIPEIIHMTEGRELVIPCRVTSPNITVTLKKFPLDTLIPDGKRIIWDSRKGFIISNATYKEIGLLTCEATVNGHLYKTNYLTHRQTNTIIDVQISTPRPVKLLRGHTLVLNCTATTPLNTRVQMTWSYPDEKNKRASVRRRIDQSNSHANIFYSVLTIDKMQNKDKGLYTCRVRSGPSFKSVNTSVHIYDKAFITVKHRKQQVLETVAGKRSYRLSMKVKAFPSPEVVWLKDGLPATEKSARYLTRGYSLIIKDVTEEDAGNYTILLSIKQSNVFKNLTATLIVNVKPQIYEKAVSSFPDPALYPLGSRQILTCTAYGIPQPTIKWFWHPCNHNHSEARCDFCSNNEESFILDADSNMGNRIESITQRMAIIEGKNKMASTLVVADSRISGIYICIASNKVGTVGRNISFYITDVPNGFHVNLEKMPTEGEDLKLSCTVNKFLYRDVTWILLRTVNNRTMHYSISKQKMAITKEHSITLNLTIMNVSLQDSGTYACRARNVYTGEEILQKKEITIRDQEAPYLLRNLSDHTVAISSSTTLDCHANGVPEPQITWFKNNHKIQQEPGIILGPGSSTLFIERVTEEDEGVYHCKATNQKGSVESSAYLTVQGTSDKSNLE
T3 sequence (P17948 27-687 limits assumed): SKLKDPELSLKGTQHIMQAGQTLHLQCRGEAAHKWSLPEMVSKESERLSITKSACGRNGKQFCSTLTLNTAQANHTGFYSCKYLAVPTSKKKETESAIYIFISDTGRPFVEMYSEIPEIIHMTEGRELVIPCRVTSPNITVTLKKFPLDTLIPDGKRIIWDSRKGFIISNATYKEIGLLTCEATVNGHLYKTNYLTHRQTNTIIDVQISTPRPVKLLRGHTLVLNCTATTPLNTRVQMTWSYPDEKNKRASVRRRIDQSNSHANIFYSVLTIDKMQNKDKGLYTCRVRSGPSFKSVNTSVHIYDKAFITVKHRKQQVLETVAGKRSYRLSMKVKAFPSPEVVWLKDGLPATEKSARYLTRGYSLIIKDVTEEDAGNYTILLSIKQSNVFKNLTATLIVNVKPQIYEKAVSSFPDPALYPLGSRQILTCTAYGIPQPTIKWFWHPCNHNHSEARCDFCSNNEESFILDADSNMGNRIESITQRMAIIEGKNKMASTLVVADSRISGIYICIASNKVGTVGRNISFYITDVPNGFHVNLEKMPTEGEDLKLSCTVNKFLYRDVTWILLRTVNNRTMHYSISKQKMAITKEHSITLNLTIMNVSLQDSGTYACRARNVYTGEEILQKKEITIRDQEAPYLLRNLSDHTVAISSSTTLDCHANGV

Binder | Kd [1] | Kd [2] | Kd [3] | Kd [4] | IC50 [5]
B1 | 0.00046 nM | 0.224 nM | 0.01 nM and < 0.006 nM | 0.6 to 1 nM | 
B2 |  |  |  |  | 0.0894 nM

From patent US20240425603A1 (Janssen / Centocor, published 2024)
